Reference: publication PMC5384083

Key:
[1] = molecular target: CBP, endogenous (UniProt Q92793); assay: co-immunoprecipitation (IP GFP, western blot CBP) quantified with image J; settings: MCF7 cells; 3 independent experiments; parent: est. 25; read off a plot
[2] = molecular target: DNMT3b, endogenous (UniProt Q9UBC3); assay: co-immunoprecipitation (IP GFP, western blot DNMT3b), band intensity given; settings: MCF7 cells
[3] = molecular target: CBP, endogenous (UniProt Q92793); assay: co-immunoprecipitation (IP GFP, western blot CBP), band intensity given; settings: MCF7 cells
[4] = molecular target: Retinoblastoma protein (Rb), endogenous (UniProt P06400); assay: co-immunoprecipitation (IP GFP, western blot Rb), band intensity given; settings: MCF7 cells
Sequence of UniProt P06400 (P06400 whole entry): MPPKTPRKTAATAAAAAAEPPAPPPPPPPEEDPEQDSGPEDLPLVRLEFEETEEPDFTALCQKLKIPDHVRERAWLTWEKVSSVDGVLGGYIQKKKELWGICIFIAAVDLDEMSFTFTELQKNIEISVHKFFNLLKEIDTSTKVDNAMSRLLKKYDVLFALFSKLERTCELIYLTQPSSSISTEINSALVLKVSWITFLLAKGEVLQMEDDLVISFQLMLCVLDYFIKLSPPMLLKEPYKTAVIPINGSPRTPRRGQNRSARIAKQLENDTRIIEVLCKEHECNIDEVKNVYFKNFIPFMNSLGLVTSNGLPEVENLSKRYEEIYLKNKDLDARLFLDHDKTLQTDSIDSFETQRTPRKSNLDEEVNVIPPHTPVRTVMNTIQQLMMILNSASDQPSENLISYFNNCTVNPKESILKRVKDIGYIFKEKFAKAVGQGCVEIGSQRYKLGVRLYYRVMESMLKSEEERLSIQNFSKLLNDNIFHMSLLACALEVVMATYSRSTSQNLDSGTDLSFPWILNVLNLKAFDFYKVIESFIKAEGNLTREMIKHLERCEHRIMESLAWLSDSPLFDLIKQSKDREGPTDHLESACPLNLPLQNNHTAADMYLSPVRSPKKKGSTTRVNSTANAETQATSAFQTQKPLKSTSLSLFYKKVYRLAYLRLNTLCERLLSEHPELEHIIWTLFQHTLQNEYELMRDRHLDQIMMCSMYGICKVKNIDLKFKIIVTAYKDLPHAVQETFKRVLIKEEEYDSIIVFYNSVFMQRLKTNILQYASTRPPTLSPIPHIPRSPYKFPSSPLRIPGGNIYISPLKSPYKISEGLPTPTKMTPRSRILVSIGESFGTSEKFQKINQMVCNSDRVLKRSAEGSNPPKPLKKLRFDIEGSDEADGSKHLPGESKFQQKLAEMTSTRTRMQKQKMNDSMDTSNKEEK

[5] = molecular target: Retinoblastoma protein (Rb), endogenous (UniProt P06400); assay: co-immunoprecipitation (IP GFP, western blot Rb) quantified with image J; settings: MCF7 cells; 3 independent experiments; parent: est. 32; read off a plot

Sequence of UniProt Q92793 (Q92793 whole entry): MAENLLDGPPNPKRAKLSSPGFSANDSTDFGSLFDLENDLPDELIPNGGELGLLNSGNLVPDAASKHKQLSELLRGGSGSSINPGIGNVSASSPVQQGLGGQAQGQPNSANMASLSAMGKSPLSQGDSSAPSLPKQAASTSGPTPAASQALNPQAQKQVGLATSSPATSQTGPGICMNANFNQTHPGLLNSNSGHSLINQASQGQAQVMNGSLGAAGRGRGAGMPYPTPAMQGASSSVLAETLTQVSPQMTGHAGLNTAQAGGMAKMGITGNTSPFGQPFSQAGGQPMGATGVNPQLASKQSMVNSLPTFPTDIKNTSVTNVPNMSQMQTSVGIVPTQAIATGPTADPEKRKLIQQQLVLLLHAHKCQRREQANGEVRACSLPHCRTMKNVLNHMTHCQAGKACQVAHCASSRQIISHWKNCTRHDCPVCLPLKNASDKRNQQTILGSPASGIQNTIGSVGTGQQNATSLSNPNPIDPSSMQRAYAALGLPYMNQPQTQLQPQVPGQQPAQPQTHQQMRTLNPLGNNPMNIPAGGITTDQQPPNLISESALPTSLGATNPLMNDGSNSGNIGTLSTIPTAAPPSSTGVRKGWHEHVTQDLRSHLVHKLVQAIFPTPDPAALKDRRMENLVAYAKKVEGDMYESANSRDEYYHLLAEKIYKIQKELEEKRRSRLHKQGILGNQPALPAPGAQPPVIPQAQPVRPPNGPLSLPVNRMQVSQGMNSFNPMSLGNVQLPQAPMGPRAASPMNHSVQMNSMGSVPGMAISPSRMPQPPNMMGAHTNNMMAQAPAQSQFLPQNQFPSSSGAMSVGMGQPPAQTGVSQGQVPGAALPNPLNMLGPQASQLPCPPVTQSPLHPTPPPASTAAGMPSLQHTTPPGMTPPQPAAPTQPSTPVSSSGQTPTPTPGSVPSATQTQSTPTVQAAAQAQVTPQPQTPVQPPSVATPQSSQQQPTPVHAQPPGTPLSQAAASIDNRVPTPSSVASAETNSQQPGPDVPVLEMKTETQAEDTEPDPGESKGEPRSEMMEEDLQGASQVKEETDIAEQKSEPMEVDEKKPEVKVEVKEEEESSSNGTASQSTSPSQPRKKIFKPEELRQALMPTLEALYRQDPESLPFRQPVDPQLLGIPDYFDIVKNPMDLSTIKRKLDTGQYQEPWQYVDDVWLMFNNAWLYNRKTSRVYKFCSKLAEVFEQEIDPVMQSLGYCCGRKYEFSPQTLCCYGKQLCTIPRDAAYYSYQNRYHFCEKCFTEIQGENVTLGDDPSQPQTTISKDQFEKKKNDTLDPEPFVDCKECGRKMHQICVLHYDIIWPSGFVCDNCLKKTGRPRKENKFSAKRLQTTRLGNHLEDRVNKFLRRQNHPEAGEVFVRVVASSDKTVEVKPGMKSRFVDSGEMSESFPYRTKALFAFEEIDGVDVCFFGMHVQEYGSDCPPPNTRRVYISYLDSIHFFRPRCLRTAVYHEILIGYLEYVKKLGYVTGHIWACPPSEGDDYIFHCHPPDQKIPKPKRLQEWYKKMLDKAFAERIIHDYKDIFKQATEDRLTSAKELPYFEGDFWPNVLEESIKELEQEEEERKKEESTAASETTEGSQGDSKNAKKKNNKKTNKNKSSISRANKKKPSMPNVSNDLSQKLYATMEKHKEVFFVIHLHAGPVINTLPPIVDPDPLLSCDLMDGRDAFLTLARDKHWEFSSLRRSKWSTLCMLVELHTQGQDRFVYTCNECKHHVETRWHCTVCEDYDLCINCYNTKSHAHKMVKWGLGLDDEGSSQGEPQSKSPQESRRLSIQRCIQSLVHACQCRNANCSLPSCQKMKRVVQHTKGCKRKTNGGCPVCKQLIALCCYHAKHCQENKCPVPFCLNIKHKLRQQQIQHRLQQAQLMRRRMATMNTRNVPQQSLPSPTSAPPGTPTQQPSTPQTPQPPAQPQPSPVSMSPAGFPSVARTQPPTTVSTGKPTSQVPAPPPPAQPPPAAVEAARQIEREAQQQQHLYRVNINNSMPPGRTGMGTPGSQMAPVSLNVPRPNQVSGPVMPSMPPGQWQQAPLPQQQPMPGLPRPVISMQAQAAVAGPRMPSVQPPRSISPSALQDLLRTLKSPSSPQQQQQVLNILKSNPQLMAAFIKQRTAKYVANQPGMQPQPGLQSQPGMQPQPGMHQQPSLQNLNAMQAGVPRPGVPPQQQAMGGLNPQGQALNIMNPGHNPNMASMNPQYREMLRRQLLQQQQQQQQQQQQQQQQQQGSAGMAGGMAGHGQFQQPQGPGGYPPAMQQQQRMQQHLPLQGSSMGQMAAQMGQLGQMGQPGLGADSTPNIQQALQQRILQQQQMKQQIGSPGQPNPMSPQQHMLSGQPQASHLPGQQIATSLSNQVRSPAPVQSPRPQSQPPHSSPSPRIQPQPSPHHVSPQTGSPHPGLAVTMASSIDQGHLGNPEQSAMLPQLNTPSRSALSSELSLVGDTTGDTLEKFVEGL

Substance	response (fold pull down) [1]	response [2]	response [3]	response [4]	response (fold pull down) [5]
GFP-FoxM1 full length (FL) S715A; S724A	9.7	90	6	24.7	36
GFP-FoxM1 full length (FL) S715D; S724D	31	32.3	21	6.7	5.8
GFP-FoxM1 full length (FL) T596A	8.4	112	5.1	30.4	38
